The record followed here is patent publication US20240270874A1 (JIANGSU HENGRUI PHARMACEUTICALS, published 2024).

Assay [1] has as its target T1, human KLB on CHOK1-hKLB cells (human, UniProt Q86Z14 1-1044).
T1 construct: whole, on cells; also called human KLB antigen; β-Klotho
T1 sequence (looked up): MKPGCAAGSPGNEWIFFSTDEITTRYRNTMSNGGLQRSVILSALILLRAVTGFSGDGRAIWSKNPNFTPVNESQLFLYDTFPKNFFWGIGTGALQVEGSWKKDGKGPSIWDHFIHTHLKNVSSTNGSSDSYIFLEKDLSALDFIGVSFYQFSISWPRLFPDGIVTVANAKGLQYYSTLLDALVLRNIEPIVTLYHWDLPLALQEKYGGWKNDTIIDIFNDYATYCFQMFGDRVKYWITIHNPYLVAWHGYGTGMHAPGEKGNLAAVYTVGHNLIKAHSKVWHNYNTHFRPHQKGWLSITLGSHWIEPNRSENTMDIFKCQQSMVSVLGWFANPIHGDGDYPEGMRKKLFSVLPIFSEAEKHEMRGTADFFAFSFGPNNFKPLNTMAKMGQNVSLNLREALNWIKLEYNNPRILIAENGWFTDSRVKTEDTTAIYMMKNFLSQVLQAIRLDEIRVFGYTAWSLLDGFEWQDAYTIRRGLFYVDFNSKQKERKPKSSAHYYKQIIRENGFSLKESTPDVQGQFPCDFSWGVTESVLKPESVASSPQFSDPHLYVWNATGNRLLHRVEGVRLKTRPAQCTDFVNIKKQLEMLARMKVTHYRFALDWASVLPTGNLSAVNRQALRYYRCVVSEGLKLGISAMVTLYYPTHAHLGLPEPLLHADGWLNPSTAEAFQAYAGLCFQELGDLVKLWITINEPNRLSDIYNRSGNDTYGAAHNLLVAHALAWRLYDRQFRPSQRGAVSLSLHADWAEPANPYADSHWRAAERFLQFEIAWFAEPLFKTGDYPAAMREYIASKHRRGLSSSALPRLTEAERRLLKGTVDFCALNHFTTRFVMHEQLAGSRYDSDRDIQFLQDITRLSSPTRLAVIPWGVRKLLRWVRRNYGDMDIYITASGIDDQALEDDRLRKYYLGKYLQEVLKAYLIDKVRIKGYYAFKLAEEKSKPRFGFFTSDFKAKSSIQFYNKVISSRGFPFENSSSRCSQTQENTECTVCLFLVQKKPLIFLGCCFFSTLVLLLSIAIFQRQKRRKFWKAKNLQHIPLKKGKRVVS
As to the kind of experiment: flow cytometry on CHOK1-hKLB cells. On the procedure:
The binding ability of the antibodies for CHOK1 cell strains CHOK1-hKLB and CHOK1-cynoKLB overexpressing human KLB and monkey KLB (see Example 1 for specific preparation procedure), respectively, was detected by flow cytometry. The specific procedure was as follows: the above cells were cultured in 10% FBS-containing IMDM medium and incubated in an incubator at 37° C. and 5% CO₂ for 2 days. The cells were then added to a cell plate at 1×10⁵ cells per well, centrifuged at 300 g for 5 min, and then washed once with 1% BSA. The antibody diluted in gradient was added to the cell plate at 100 μL per well, and the mixture was incubated at 4° C. for 1 h and washed once with 1% BSA. The diluted (1:400) APC-goat anti-human IgG Fc fluorescent secondary antibody was added at 100 μL per well, and the resulting mixture was incubated at 4° C. for 1 h. The plate was washed three times with 1% BSA, PBS was added at 100 μL per well, and the plate was read.
(In flow cytometry, cells or beads pass a laser one at a time.)

Assay [2] deals with T2, hKLB (R&D, Cat. # 5889-KB) (human, UniProt Q86Z14 53-997, limits assumed).
T2 construct: bought soluble protein; also called KLB protein; human KLB
T2 sequence (looked up): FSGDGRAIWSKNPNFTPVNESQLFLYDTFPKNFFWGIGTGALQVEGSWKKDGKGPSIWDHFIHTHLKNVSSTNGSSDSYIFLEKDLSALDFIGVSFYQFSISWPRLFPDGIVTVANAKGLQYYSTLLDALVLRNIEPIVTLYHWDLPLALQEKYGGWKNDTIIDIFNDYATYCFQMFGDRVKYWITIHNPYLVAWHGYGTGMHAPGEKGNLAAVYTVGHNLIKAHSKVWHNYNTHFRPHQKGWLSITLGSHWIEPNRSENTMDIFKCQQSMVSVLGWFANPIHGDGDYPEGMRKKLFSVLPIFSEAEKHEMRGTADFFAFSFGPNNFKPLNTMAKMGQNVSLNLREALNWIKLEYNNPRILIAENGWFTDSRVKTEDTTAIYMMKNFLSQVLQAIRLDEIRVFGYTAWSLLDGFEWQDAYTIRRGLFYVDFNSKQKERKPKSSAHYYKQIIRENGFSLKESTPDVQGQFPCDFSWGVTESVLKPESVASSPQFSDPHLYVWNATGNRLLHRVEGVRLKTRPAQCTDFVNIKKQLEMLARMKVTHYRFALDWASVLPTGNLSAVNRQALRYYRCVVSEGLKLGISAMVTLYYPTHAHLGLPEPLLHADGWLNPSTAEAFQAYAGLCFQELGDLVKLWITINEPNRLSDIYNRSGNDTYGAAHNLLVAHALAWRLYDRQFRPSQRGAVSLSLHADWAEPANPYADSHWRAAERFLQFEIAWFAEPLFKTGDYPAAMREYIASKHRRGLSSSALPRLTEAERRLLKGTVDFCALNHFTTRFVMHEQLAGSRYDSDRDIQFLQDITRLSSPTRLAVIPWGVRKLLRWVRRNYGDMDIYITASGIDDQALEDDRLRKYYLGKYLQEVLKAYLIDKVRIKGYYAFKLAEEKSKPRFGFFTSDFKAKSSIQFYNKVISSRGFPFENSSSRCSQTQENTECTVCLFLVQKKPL
Description: SPR (Biacore T200), antibody captured on Protein A chip, hKLB as analyte, 1:1 model. From the text: A Protein A biosensor chip (Cat. # 29127556, GE) was allowed to affinity capture an antibody, and then a certain concentration of hKLB (R&D, Cat. # 5889-KB) was allowed to flow through the surface of the chip. The reaction signals were detected in real time using a Biacore T200 instrument to obtain an association and dissociation curve. After dissociation was complete in each experiment cycle, the biosensor chip was washed with Glycine1.5 (Cat. # BR-1003-54, GE) for regeneration. The data were fitted using a 1:1 model to obtain antibody affinity data, and the specific experimental results are shown in Table 10 below.
(In general: In SPR one partner is held on a chip, and binding of the other changes the refractive index at the surface.)

The target in assay [3] is human FGFR1c on cells (human, UniProt P11362 22-822). As to the kind of experiment: cell-based or functional assay.
Sequence of human FGFR1c on cells (P11362 22-822): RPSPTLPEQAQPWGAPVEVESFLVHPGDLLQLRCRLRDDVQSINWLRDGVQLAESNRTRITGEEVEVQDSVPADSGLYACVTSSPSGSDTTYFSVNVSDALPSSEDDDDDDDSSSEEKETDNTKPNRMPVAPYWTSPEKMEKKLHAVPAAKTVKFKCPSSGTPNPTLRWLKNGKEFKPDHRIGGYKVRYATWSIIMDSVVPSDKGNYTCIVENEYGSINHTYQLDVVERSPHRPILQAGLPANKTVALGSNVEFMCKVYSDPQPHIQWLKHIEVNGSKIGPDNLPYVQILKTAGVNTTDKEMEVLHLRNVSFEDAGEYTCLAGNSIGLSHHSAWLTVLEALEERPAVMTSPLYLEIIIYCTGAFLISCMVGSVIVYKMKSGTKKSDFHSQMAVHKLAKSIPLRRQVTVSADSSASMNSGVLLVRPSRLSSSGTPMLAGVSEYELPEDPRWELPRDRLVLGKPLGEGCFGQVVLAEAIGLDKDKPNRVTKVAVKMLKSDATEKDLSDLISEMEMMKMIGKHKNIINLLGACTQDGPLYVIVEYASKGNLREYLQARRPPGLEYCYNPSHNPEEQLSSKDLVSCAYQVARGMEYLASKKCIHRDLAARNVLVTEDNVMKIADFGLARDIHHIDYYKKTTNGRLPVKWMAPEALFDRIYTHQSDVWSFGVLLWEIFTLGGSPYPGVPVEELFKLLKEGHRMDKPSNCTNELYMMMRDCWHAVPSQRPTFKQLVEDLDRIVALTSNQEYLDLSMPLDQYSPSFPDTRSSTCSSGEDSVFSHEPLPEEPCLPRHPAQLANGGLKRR

B1: hAb-23 (antibody, human IgG1, kappa, L234A L235A, V domains shown)
VH: QVQLVQSGAEVKKPGSSVKVSCKASGGTFSSYAISWVRQAPGQGLEWMGGIIPIFGTANYAQKFQGRVTITADESTSTAYMELSSLRSEDTAVYYCARELVSYYYGMDVWGQGTMVTVSS
VL: not shown
notes: from a human natural phage library; human IgG1 (L234A, L235A) / kappa; also called fully human antibody hAb-23
Take B1: the EC50 in assay [1] worked out at 0.39 nM. Moreover, in assay [2], the Kd was determined as 0.199 nM, the koff was found to be 4.91e-05 s⁻¹ and the kon was determined as 247000 M⁻¹ s⁻¹. The “Activation fold, SRE-Luc2P reporter in HEK293-hFGFR1c cells” value (“Activation fold, SRE-Luc2P reporter” for short) in assay [3] stood at 0.86 fold.

B2: hAb18-8 (antibody, human IgG1, kappa, L234A L235A, V domains shown)
VH: EVQLVQSGAEVKKPGASVKVSCKASGYTFTDYAMHWVRQAPGQRLEWMGVISTYSGTTNYNQNFKGRVTITVDKSASTAYMELSSLRSEDTAVYYCARSGPLDYWGQGTTVTVSS
VL: ENVLTQSPDFQSVTPKEKVTITCRATSSVSSSYLHWYQQKPDQSPKLWIYSTSQLASGVPSRFSGSGSGTDYTLTINSLEAEDAATYYCQQYSGYPLTFGQGTKLEIKR
notes: human IgG1 (L234A, L235A) / kappa
B2 came in with an EC50 in assay [1] of 1.93 nM. Besides, in assay [2], the Kd worked out at 0.977 nM, the koff worked out at 0.000103 s⁻¹ and the kon turned out to be 106000 M⁻¹ s⁻¹. Moreover, the “Activation fold, SRE-Luc2P reporter” value in assay [3] is 0.81 fold.

B3: hAb99-13 (antibody, human IgG1, kappa, L234A L235A, V domains shown)
VH: EVQLVQSGAEVKKPGASVKVSCKASGYTFTNYGINWVRQAPGQRLEWMGYIYIGNVDIEYNAKFKGRVTITSDTSASTAYMELSSLRSEDTAVYYCARGRGLGHFDVWGQGTTVTVSS
VL: DIQMTQSPSSLSASVGDRVTITCRASKSISKFLAWFQQKPGKTNKLLIYSGSTLQSGVPSRFSGSGSGTDFTLTISSLQPEDFATYYCQQHNEYPWTFGGGTKVEIKR
notes: as for B2
Molecule B3 yielded an EC50 in assay [1] of 0.44 nM. In addition, in assay [2], the Kd was determined as 2.1 nM, the koff amounted to 0.000626 s⁻¹ and the kon was found to be 298000 M⁻¹ s⁻¹. Further, the “Activation fold, SRE-Luc2P reporter” value in assay [3] is 0.77 fold.

As a reminder, the EC50 is the concentration giving half of the maximal effect. Low values mean a more potent agent, high ones a less potent agent. The Kd is the equilibrium constant for the complex coming apart. Broadly, the koff is the rate constant with which the complex falls apart. What is called kon is a measure of how fast the partners come together.
